Among the data in the RNAGym collection of RNA variant scans (doi:10.1093/molbev/msab373) are reverse-splicing fitness values, retold here.

B1: Azoarcus group I ribozyme (parent)
chain: GUGCCUUGCGCCGGGAAACCACGCAAGGGAUGGUGUCAAAUUCGGCGAAACCUAAGCGCCCGCCCGGGCGUAUGGCAACGCCGAGCCAAGCUUCGGCGCCUGCGCCGAUGAAGGUGUAGAGACUAGACGGCACCCACCUAAGGCAAACGCUAUGGUGAAGGCAUAGUCCAGGGAGUGGCGAAAGUCACACAAACCGG

In this series the parent is B1. As to the kind of experiment: reverse-splicing fitness (ratio to wild type); higher = more active; in vitro selection; Mg2+ level not given. The method in brief:
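An in vitro group I ribozyme library with randomized positions was T7-transcribed and gel-purified. In triplicate, 10 pmol RNA in EPPS pH 7.5 was reacted with 50 pmoles of a 30-nt RNA substrate for 1 h at 37 °C across several added MgCl2 levels (1–48 mM), then stopped with EDTA. Products were reverse transcribed from a substrate-complementary primer, PCR-amplified and sequenced (HiSeq 4000). Fitness is a variant's read proportion after selection over that before, normalised to wild type.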
On to GUGCCUUGCGCCGGGAAACCACGCAAGGGAUGGUGUCAAAUUCGGCGAAACCUAAGCGCCCGCCCGGGCGUAUGGCAACGCUGAGCCAAGCUUCGGCGCCUGCGCCGAUGAAGGUGUAGAGACUAGACGGCACCCACCUAAGGCAAACGCUAUGGUGAAGGCAUAGUCCAGGGAGUGGCGAAAGUCACACAAACCGG, for which the reverse-splicing fitness was determined as 0.643.

Take GUGCCUUGCGCCGGGAAACCACGCAAGGGAUGGUGUCAAAUUCGGCGAAACCUAAGCGCCCGCCCGGGCGUAUGGCAACGCGGAGCCAAGCUUCGGCGCCUGCGCCGAUGAAGGUGUAGAGACUAGACGGCACCCACCUAAGGCAAACGCUAUGGUGAAGGCAUAGUCCAGGGAGCGGCGAAAGUCACACAAACCGG: the reverse-splicing fitness stood at 0.352.

Regarding GUGCCUUGCGCCGGGAAACCACGCAAGGGAUGGUGUCAAAUUCGGCGAAACCUAAGCGCCCGCCCGGGCGUAUGGCAACGCGGAGCCAAGCUUCGGCGCCUGCGCCGAUGAAGGUGUAGAGACUAGACGGCACCCACCUAAGGCAAACGCUAUGGUGAAGGCAUAGUCCAGGGAGAGGCGAAAGUCACACAAACCGG, the reverse-splicing fitness came out at 0.364.

With GUGCCUUGCGCCGGGAAACCACGCAAGGGAUGGUGUCAAAUUCGGCGAAACCUAAGCGCCCGCCCGGGCGUAUGGCAACGCGGAGCCAAGCUUCGGCGCCUGCGCCGAUGAAGGUGUAGAGACUAGACGGCACCCACCUAAGGCAAACGCUAUGGUGAAGGCAUAGUCCAGGGAGGGGCGAAAGUCACACAAACCGG, the reverse-splicing fitness came to 0.14.

Turning to GUGCCUUGCGCCGGGAAACCACGCAAGGGAUGGUGUCAAAUUCGGCGAAACCUAAGCGCCCGCCCGGGCGUAUGGCAACGCGGAGCCAAGCUUCGGCGCCUGCGCCGAUGAAGGUGUAGAGACUAGACGGCACCCACCUAAGGCAAACGUUAUGGUGAAGGCAUAGUCCAGGGAGCGGCGAAAGUCACACAAACCGG, the reverse-splicing fitness is 0.206.

On to GUGCCUUGCGCCGGGAAACCACGCAAGGGAUGGUGUCAAAUUCGGCGAAACCUAAGCGCCCGCCCGGGCGUAUGGCAACGCGGAGCCAAGCUUCGGCGCCUGCGCCGAUGAAGGUGUAGAGACUAGACGGCACCCACCUAAGGCAAACGUUAUGGUGAAGGCAUAGUCCAGGGAGGGGCGAAAGUCACACAAACCGG, for which the reverse-splicing fitness came out at 0.0728.

As for GUGCCUUGCGCCGGGAAACCACGCAAGGGAUGGUGUCAAAUUCGGCGAAACCUAAGCGCCCGCCCGGGCGUAUGGCAACGCUGAGCCAAGCUUCGGCGCCUGCGCCGAUGCAGGUGUAGCGACUAGACGGCACCCACCUAAGGCAAACGCUAUGGUGAAGGCAUAGUCCAGGGAGUGGCGAAAGUCACACAAACCGG, the reverse-splicing fitness was 0.0271.

GUGCCUUGCGCCGGGAAACCACGCAAGGGAUGGUGUCAAAUUCGGCGAAACCUAAGCGCCCGCCCGGGCGUAUGGCAACGCGGAGCCAAGCUUCGGCGCCUGCGCCGAUGAAGGUGUAGAGACUAGACGGCACCCACCUAAGGCAAACGCUAUGGUGAAGGCAUAGUCUAGGGAGGGGCGAAAGUCACACAAACCGG: the reverse-splicing fitness was 0.00463.

GUGCCUUGCGCCGGGAAACCACGCAAGGGAUGGUGUCAAAUUCGGCGAAACCUAAGCGCCCGCCCGGGCGUAUGGCAACGCGGAGCCAAGCUUCGGCGCCUGCGCCGAUGAAGGUGUAGAGACUAGACGGCACCCACCUAAGGCAAACGCUAUGGUGAAGGCAUAGUCUAGGGAGAGGCGAAAGUCACACAAACCGG: the reverse-splicing fitness was found to be 0.0135.

GUGCCUUGCGCCGGGAAACCACGCAAGGGAUGGUGUCAAAUUCGGCGAAACCUAAGCGCCCGCCCGGGCGUAUGGCAACGCGGAGCCAAGCUUCGGCGCCUGCGCCGAUGAAGGUGUAGAGACUAGACGGCACCCACCUAAGGCAAACGCUAUGGUGAAGGCAUAGUCUAGGGAGCGGCGAAAGUCACACAAACCGG: the reverse-splicing fitness was 0.0165.

For the variant GUGCCUUGCGCCGGGAAACCACGCAAGGGAUGGUGUCAAAUUCGGCGAAACCUAAGCGCCCGCCCGGGCGUAUGGCAACGCUGAGCCAAGCUUCGGCGCCUGCGCCGAUGCAGGUGUAGCGACUAGACGGCACCCACCUAAGGCCAACGAUAUGGUGAAGGCAUAGUCAAGGGAGUGGCGAAAGUCACACAAACCGG, the reverse-splicing fitness is 0.00737.

In the case of GUGCCUUGCGCCGGGAAACCACGCAAGGGAUGGUGUCAAAUUCGGCGAAACCUAAGCGCCCGCCCGGGCGUAUGGCAACGCUGAGCCAAGCUUCGGCGCCUGCGCCGAUGCAGGUGUAGCGACUAGACGGCACCCACCUAAGGCCAACGAUAUGGUGAAGGCAUAGUCGAGGGAGUGGCGAAAGUCACACAAACCGG, the reverse-splicing fitness worked out at 0.00647.

Regarding GUGCCUUGCGCCGGGAAACCACGCAAGGGAUGGUGUCAAAUUCGGCGAAACCUAAGCGCCCGCCCGGGCGUAUGGCAACGCGGAGCCAAGCUUCGGCGCCUGCGCCGAUGAAGGUGUAGAGACUAGACGGCACCCACCUAAGGCAAACGCUAUGGUGAAGGCAUAGUCGAGGGAGAGGCGAAAGUCACACAAACCGG, the reverse-splicing fitness amounted to 0.0155.

With GUGCCUUGCGCCGGGAAACCACGCAAGGGAUGGUGUCAAAUUCGGCGAAACCUAAGCGCCCGCCCGGGCGUAUGGCAACGCGGAGCCAAGCUUCGGCGCCUGCGCCGAUGAAGGUGUAGAGACUAGACGGCACCCACCUAAGGCAAACGCUAUGGUGAAGGCAUAGUCGAGGGAGCGGCGAAAGUCACACAAACCGG, the reverse-splicing fitness worked out at 0.0235.

In the case of GUGCCUUGCGCCGGGAAACCACGCAAGGGAUGGUGUCAAAUUCGGCGAAACCUAAGCGCCCGCCCGGGCGUAUGGCAACGCGGAGCCAAGCUUCGGCGCCUGCGCCGAUGAAGGUGUAGAGACUAGACGGCACCCACCUAAGGCAAACGCUAUGGUGAAGGCAUAGUCGAGGGAGGGGCGAAAGUCACACAAACCGG, the reverse-splicing fitness amounted to 0.00418.
